In patent US20220288204A1, “DOSAGE AND ADMINISTRATION OF ANTI-ERBB3 (HER3) MONOCLONAL ANTIBODIES TO TREAT TUMORS ASSOCIATED WITH NEUREGULIN 1 (NRG1) GENE FUSIONS” (ELEVATION ONCOLOGY, INC., priority 2021, published 2022):
“Also recorded” adds a separate entry of the source.

Legend:
LUAD-0061AS3 PDX tumors = experiment: NSCLC PDX model efficacy (SLC3A2-NRG1); type: in vivo, mice
Experimental: Characterization of the […] PDX model. H&E staining, TTF-1, and phospho-HER3 IHC (FIG. 5A, left to right). […] (FIG. 5B). Tumor volumes were measured twice weekly and plotted overtime. Results represent the mean±SEM. […] Western blotting was performed twice for each protein and representative immunoblots of phosphorylated (p) and total (t) proteins are shown (FIG. 5C).
(§1) Crushed PDX tumor samples were mixed with Matrigel (50%) and injected into the subcutaneous flank of 6-week-old female NSG (LUAD-0061AS3) or Balb/c nude (OV-10-0050) mice. When tumors reached approximately 100-150 mm3, mice were randomly assigned to groups of 5-8 and treatment was commenced. There were 2 mice per group with bilateral flank tumors for the protein phosphorylation/expression study in the LUAD-0061AS3 PDX model. Drugs were administered once, and then tumors were collected at 2, 24, and 168 hours posttreatment. Afatinib was administered by oral gavage once daily as a suspension (in 0.5% methylcellulose-0.4% Tween-80) on a 5-days-on and 2-days-off schedule. […] Mice were observed daily throughout the treatment period for signs of morbidity and mortality. Tumor length and width and animal weights were measured twice weekly. Tumor volume was calculated using the empirical formula V=length×width 2×0.52. The percentage change in tumor volume of each tumor was calculated using the formula [(V2−V1)/V1)]×100, where V1 is the starting tumor volume and V2 is the final tumor volume.
The 5 mg/kg daily dose of afatinib is equivalent to the human dose of […] daily, which is the maximum approved dose for patients.
The tumor volume as a function of time is illustrated in FIG. 5B, and the AUC computed for each group to facilitate comparison of tumor volume between groups at the last date all groups had surviving animals (day 35) was determined. […] The highest dose of afatinib (15 mg/kg) was also effective at causing regression of six of seven tumors in the.

OV-10-0050 PDX tumors = experiment: HGSOC ovarian PDX model efficacy (CLU-NRG1); type: in vivo, mice; set-up: average tumor volume at the time of the last treatment: unit not given beside the values; details: for average tumor volume at the time of the last treatment: day 27
Text: IHC characterization of the OV-10-0050 PDX model (FIG. 6A). H&E staining, WT1, and TP53 IHC (left to right). […] (FIG. 6B). Treatment was terminated on day 27 and animals were monitored for tumor regrowth until tumors reached maximum allowable size or until 90 days after treatment initiation. Results represent the mean tumor volume ±SEM. A zoom-in view on tumor volumes during the last 40 days of monitoring of seribantumab-treated groups (right). […] Change in the volume of individual tumors (day 27 vs. volume at start of treatment) (FIG. 6C).
as §1
RT-PCR confirmed the presence of the CLU-NRG1 fusion. Xenograft tissue morphology and IHC markers (positive for WT1 and strong nuclear staining for TP53) were consistent with HGSOC histology (FIG. 6A; Kobel M, et al., Int. J. Gynecol. Pathol. 2016; 35:430-41). […] As with the above experiments in the NSCLC PDX model, the doses of seribantumab used here were lower than the dose that is used in patients. Treatment was terminated at day 27 and tumor growth was monitored for an additional 63 days (90 days after initiation of treatment or once tumors reached the maximum allowable size). The tumor volume as a function of time is illustrated in FIG. 6B, and the AUC was computed for each group to compare tumor volumes between groups at the last date of treatment. […] Forty-one days after treatment began, mice bearing vehicle- and afatinib-treated tumors were sacrificed because of the high tumor burden.

CH-17-0068 PDX tumors = experiment: Intrahepatic cholangiocarcinoma PDX model (RBPMS-NRG1); type: in vivo, mice; details: monotherapy seribantumab 5 mg and 10 mg per dose BIW vs afatinib 5 mg/kg QD
Experimental: Representative H&E-stained CH-17-0068 PDX tumor (FIG. 9A). Genomic alterations identified by RNAseq and corresponding investigational targeted therapies (FIG. 9B). […] Afatinib (5 mg/kg QD) or AG-120 (isocitrate dehydrogenase [IDH] inhibitor, 150 mg/kg twice daily [BID]) were then added to the indicated groups. Results represent the mean±SEM. Change in the volume of individual tumors on day 30 (FIG. 9D) or at the end of the study (FIG. 9E).
Models of isogenic pancreatic cancer cells with NRG1 fusions by lentiviral-mediated cDNA expression of ATP1B1-NRG1 and SLC3A2-NRG1 fusions in immortalized human pancreatic ductal cells (H6c7) were developed. […] Western blotting analysis was used to evaluate protein phosphorylation and expression. The presence of NRG1 fusions was confirmed by reverse transcription polymerase chain reaction (RT-PCR) and next-generation sequencing (NGS).

[1] = n=847 patients treated; cited from earlier work
[2] = system: xenograft tumors generated from OVCAR8 cells; details: Sheng Q, et al., Cancer Cell 2010; cited from earlier work
[3] = cited from earlier work
[4] = dosage lower than that used in human trials

B1: seribantumab: anti-ERBB3 (HER3) fully human monoclonal antibody; heavy and light chains SEQ ID NOs: 12 and 13 (antibody)
heavy: EVQLLESGGGLVQPGGSLRLSCAASGFTFSHYVMAWVRQAPGKGLEWVSSISSSGGWTLYADSVKGRFTISRDNSKNTLYLQMNSLRAEDTAVYYCTRGLKMATIFDYWGQGTLVTVSSASTKGPSVFPLAPCSRSTSESTAALGCLVKDYFPEPVTVSWNSGALTSGVHTFPAVLQSSGLYSLSSVVTVPSSNFGTQTYTCNVDHKPSNTKVDKTVERKCCVECPPCPAPPVAGPSVFLFPPKPKDTLMISRTPEVTCVVVDVSHEDPEVQFNWYVDGVEVHNAKTKPREEQFNSTFRVVSVLTVVHQDWLNGKEYKCKVSNKGLPAPIEKTISKTKGQPREPQVYTLPPSREEMTKNQVSLTCLVKGFYPSDIAVEWESNGQPENNYKTTPPMLDSDGSFFLYSKLTVDKSRWQQGNVFSCSVMHEALHNHYTQKSLSLSPGK
light: QSALTQPASVSGSPGQSITISCTGTSSDVGSYNVVSWYQQHPGKAPKLIIYEVSQRPSGVSNRFSGSKSGNTASLTISGLQTEDEADYYCCSYAGSSIFVIFGGGTKVTVLGQPKAAPSVTLFPPSSEELQANKATLVCLVSDFYPGAVTVAWKADGSPVKVGVETTKPSKQSNNKYAASSYLSLTPEQWKSHRSYSCRVTHEGSTVEKTVAPAECS
- tumors with regression (LUAD-0061AS3 PDX tumors; 0.75 mg seribantumab twice weekly): four of seven
- efficacy compared with afatinib (LUAD-0061AS3 PDX tumors; 1 mg BIW seribantumab vs 15 mg/kg daily afatinib): as effective as the 15 mg/kg daily dose of afatinib; also recorded: as effective as the highest dose of afatinib
- tumors with regression (LUAD-0061AS3 PDX tumors; 1 mg seribantumab twice weekly): six of seven
- maximum tumor reduction (LUAD-0061AS3 PDX tumors; 1 mg seribantumab twice weekly, by day 42): 57.2%±2.6%
- tumor volume (LUAD-0061AS3 PDX tumors; all doses of seribantumab tested (0.6, 0.75, 1 mg twice weekly)): bigger decrease in tumor volume
- tumor regression (LUAD-0061AS3 PDX tumors; [4]): more than 50%
- average tumor volume at the time of the last treatment (OV-10-0050 PDX tumors; 1 mg seribantumab twice weekly): 1.3±0.3
- average tumor volume at the time of the last treatment (OV-10-0050 PDX tumors; 2.5 mg seribantumab twice weekly): 1.9±0.6
- average tumor volume at the time of the last treatment (OV-10-0050 PDX tumors; 5 mg seribantumab twice weekly): 17.9±14.5
- average tumor volume at the time of the last treatment (OV-10-0050 PDX tumors; 10 mg seribantumab twice weekly): 2.1±0.6
- day on which tumors started to regrow (OV-10-0050 PDX tumors; 1, 2.5 and 5 mg seribantumab groups, treatment terminated day 27): ≤ 73 days
- tumor regression (OV-10-0050 PDX tumors; [4]): 100%
- tumor regrowth after cessation of treatment (OV-10-0050 PDX tumors; highest dose of seribantumab): blocked tumor regrowth after cessation of treatment
- tumor growth (OV-10-0050 PDX tumors; seribantumab 1, 2.5, 5, 10 mg twice weekly): significant tumor shrinkage at all doses tested
- tumor growth after treatment was stopped (OV-10-0050 PDX tumors; seribantumab, monitoring after cessation): largely repressed for 63 days
- tumors that started to regrow at the end of the study (OV-10-0050 PDX tumors; two highest dose groups of seribantumab): one of eight
- efficacy compared with afatinib (CH-17-0068 PDX tumors): equally effective as afatinib
- grade of infusion related reactions [1]: Grade 1 or 2
- patients experiencing an infusion related reaction [1]: < 1%
- growth of xenograft tumors [2]: block growth of xenograft tumors
- maximum tolerated dose ([3]; 43 advanced solid tumor patients): not reached
- treatment-emergent adverse events having >20% incidence ([3]; 43 patients, all grades regardless of relationship): fatigue, nausea, diarrhea, vomiting, decreased appetite, hyperglycemia, hypokalemia, and rash
- hypomagnesemia ([3]; 43 patients): Grade 1
- most commonly reported adverse events ([3]; 43 patients): Grade 1 or 2 rash, nausea, diarrhea and fatigue
